Assay results from patent US20250027090, “MIRROR-IMAGE SELECTION OF L-NUCLEIC ACID APTAMERS” (Tsinghua University, published 2025).

Biological target: thrombin (native human beta-thrombin) (Homo sapiens, UniProt P00734;P00734 P00734:328-363,P00734:364-622)
Assay: ITC; physiological buffer pH 7.4, 25 C

B1: D-6 aptamer (ssDNA)
DNA: CGGATCCAGTTACGGACTGAACAGAAGGGTGGTGTGGTTGGACTGTTCATTCAGTAAGCTTCGG
  Kd: 27 nM
